# Values quoted from earlier work in publication PMC7545370.
# Legend:
# KAP1 RBCC (Homo sapiens) = KAP1 RBCC (Homo sapiens) (UniProt Q13263)
# Ubiquitin (Homo sapiens) = Ubiquitin (Homo sapiens) (UniProt P0CG48)
# Sequence of SMARCAD1 CUE1 (Q9H4L7 154-202): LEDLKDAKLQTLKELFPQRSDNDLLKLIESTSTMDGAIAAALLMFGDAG
# Sequence of KAP1 RBCC (Homo sapiens) (Q13263 62-379): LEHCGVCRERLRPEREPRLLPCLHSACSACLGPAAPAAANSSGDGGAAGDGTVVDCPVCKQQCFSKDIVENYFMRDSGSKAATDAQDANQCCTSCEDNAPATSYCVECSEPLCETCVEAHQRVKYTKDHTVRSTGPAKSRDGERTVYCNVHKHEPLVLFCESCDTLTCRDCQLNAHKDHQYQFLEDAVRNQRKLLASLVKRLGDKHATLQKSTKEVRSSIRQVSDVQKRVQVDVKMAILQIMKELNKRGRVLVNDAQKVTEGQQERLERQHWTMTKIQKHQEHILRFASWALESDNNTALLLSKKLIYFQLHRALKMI
substance,measurement,setting,value
SMARCAD1 CUE1 (from UniProt Q9H4L7),Kd,KAP1 RBCC (Homo sapiens),0.158 µM
same,Kd,Ubiquitin (Homo sapiens),952 µM
